T1: PUF4 RNA-binding domain (Saccharomyces cerevisiae, UniProt P25339 537-888)
T1 sequence: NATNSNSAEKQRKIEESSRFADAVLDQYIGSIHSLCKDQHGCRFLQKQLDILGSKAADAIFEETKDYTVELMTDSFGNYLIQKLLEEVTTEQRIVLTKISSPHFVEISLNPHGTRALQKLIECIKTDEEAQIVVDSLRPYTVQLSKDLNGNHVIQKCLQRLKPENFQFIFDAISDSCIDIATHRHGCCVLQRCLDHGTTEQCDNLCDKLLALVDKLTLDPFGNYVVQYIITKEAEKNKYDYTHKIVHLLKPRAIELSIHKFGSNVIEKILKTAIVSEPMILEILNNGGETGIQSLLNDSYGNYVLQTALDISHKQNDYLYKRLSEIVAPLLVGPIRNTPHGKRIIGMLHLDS


Molecular target: T1, PUF4 RNA-binding domain
Assay: Mg; RNA-MaP; 20 mM Na-HEPES pH 7.4, 30 mM KOAc, 0.75 mM MgCl2, 0.1% Tween-20, 5% glycerol, 0.1 mg/mL BSA, 2 mM DTT; 25 C; 0.0125-409.6 nM protein
Settings: tags: N-His6-TEV cleaved; C-SNAP kept, Cy3B-labelled; label: tethered on chip by stalled RNA polymerase

Binder	Kd [nM]
UCUCUUUGUAAAUAGUCUCUU (ssRNA) [Ic_S1_P4E.1_K4.1_C4.1_H4.1_A4.1_[T5A]_F4.1_[T8A]_[A9G]_T4.1]	11.5
UCUCUUUGUAUGGUUUCUCUU (ssRNA) [Ic_S1_P4E.1_K4.1_C4.1_H4.1_A4.1_[A6G]_[T7G]_F4.1_[A9T]_T4.1]	542
UCUCUUUGUAAAUGCUCUCUU (ssRNA) [Ic_S1_P4E.1_K4.1_C4.1_H4.1_A4.1_[T5A]_F4.1_[T8G]_[A9C]_T4.1]	377
UCUCUUUGUAAUAUAUCUCUU (ssRNA) [Ic_S1_P4E.1_K4.1_C4.1_H4.1_A4.1_[T5A]_[A6T]_[T7A]_F4.1_T4.1]	2.68
UCUCUUUGUAAACUGUCUCUU (ssRNA) [Ic_S1_P4E.1_K4.1_C4.1_H4.1_A4.1_[T5A]_[T7C]_F4.1_[A9G]_T4.1]	17.2
UCUCUUUGUAAUCUAUCUCUU (ssRNA) [Ic_S1_P4E.1_K4.1_C4.1_H4.1_A4.1_[T5A]_[A6T]_[T7C]_F4.1_T4.1]	8.88
UCUCUUUGUAAUUUCUCUCUU (ssRNA) [Ic_S1_P4E.1_K4.1_C4.1_H4.1_A4.1_[T5A]_[A6T]_F4.1_[A9C]_T4.1]	83.9
UCUCUUUGUAAUUAAUCUCUU (ssRNA) [Ic_S1_P4E.1_K4.1_C4.1_H4.1_A4.1_[T5A]_[A6T]_F4.1_[T8A]_T4.1]	216
UCUCUUUGUAAUACUUCUCUU (ssRNA) [Ic_S1_P4E.1_K4.1_C4.1_H4.1_A4.1_[T5A]_[A6T]_[T7A]_F4.1_[T8C]_[A9T]_T4.1]	603
UCUCUUUGUAAAACCUCUCUU (ssRNA) [Ic_S1_P4E.1_K4.1_C4.1_H4.1_A4.1_[T5A]_[T7A]_F4.1_[T8C]_[A9C]_T4.1]	523
UCUCUUUGUAAUAGCUCUCUU (ssRNA) [Ic_S1_P4E.1_K4.1_C4.1_H4.1_A4.1_[T5A]_[A6T]_[T7A]_F4.1_[T8G]_[A9C]_T4.1]	941
UCUCUUUGUAAAUACUCUCUU (ssRNA) [Ic_S1_P4E.1_K4.1_C4.1_H4.1_A4.1_[T5A]_F4.1_[T8A]_[A9C]_T4.1]	36.7
UCUCUUUGUAAAAUGUCUCUU (ssRNA) [Ic_S1_P4E.1_K4.1_C4.1_H4.1_A4.1_[T5A]_[T7A]_F4.1_[A9G]_T4.1]	27.1
UCUCUUUGUAAACUUUCUCUU (ssRNA) [Ic_S1_P4E.1_K4.1_C4.1_H4.1_A4.1_[T5A]_[T7C]_F4.1_[A9T]_T4.1]	24.7
UCUCUUUGUUUAUUUCUCUU (ssRNA) [Ib_S1_P3E.1_K3.1_C3.1_H3.1_[A4T]_A3.1_F3.1_[A8T]_T3.1]	426
UCUCUUUGUACAAAUCUCUU (ssRNA) [Ic_S1_P3E.1_K3.1_C3.1_H3.1_A3.1_[T5C]_F3.1_[T7A]_T3.1]	100

Binder	Kd [nM]
UCUCUUUGUAAAGCGUCUCUU (ssRNA) [Ic_S1_P4E.1_K4.1_C4.1_H4.1_A4.1_[T5A]_[T7G]_F4.1_[T8C]_[A9G]_T4.1]	2010
UCUCUUUGUCUAUUUCUCUU (ssRNA) [Ib_S1_P3E.1_K3.1_C3.1_H3.1_[A4C]_A3.1_F3.1_[A8T]_T3.1]	823
UCUCUUUGUAAUUAUUCUCUU (ssRNA) [Ic_S1_P4E.1_K4.1_C4.1_H4.1_A4.1_[T5A]_[A6T]_F4.1_[T8A]_[A9T]_T4.1]	92.4
UCUCUUUGUAAAAGCUCUCUU (ssRNA) [Ic_S1_P4E.1_K4.1_C4.1_H4.1_A4.1_[T5A]_[T7A]_F4.1_[T8G]_[A9C]_T4.1]	2280
UCUCUUUGUAUGCGUUCUCUU (ssRNA) [Ic_S1_P4E.1_K4.1_C4.1_H4.1_A4.1_[A6G]_[T7C]_F4.1_[T8G]_[A9T]_T4.1]	1210
UCUCUUUGUAAAGCAUCUCUU (ssRNA) [Ic_S1_P4E.1_K4.1_C4.1_H4.1_A4.1_[T5A]_[T7G]_F4.1_[T8C]_T4.1]	387
UCUCUUUGUAAAAAUUCUCUU (ssRNA) [Ic_S1_P4E.1_K4.1_C4.1_H4.1_A4.1_[T5A]_[T7A]_F4.1_[T8A]_[A9T]_T4.1]	373
UCUCUUUGUAAUUGUUCUCUU (ssRNA) [Ic_S1_P4E.1_K4.1_C4.1_H4.1_A4.1_[T5A]_[A6T]_F4.1_[T8G]_[A9T]_T4.1]	98.4
UCUCUUUGUAAACGCUCUCUU (ssRNA) [Ic_S1_P4E.1_K4.1_C4.1_H4.1_A4.1_[T5A]_[T7C]_F4.1_[T8G]_[A9C]_T4.1]	833
UCUCUUUGUAUGGCUUCUCUU (ssRNA) [Ic_S1_P4E.1_K4.1_C4.1_H4.1_A4.1_[A6G]_[T7G]_F4.1_[T8C]_[A9T]_T4.1]	1630
UCUCUUUGUAAAUAUUCUCUU (ssRNA) [Ic_S1_P4E.1_K4.1_C4.1_H4.1_A4.1_[T5A]_F4.1_[T8A]_[A9T]_T4.1]	26.2
UCUCUUUGUAAAGUCUCUCUU (ssRNA) [Ic_S1_P4E.1_K4.1_C4.1_H4.1_A4.1_[T5A]_[T7G]_F4.1_[A9C]_T4.1]	406
UCUCUUUGUAAAACAUCUCUU (ssRNA) [Ic_S1_P4E.1_K4.1_C4.1_H4.1_A4.1_[T5A]_[T7A]_F4.1_[T8C]_T4.1]	41.1
UCUCUUUGUAAACAAUCUCUU (ssRNA) [Ic_S1_P4E.1_K4.1_C4.1_H4.1_A4.1_[T5A]_[T7C]_F4.1_[T8A]_T4.1]	57.4
UCUCUUUGUAUGCGCUCUCUU (ssRNA) [Ic_S1_P4E.1_K4.1_C4.1_H4.1_A4.1_[A6G]_[T7C]_F4.1_[T8G]_[A9C]_T4.1]	> 2300
UCUCUUUGUAAAAUUUCUCUU (ssRNA) [Ic_S1_P4E.1_K4.1_C4.1_H4.1_A4.1_[T5A]_[T7A]_F4.1_[A9T]_T4.1]	33.5
